The values below come from paper PMC2901902 (Nature, 2010).

The target of this assay is human DPF3b PHD12 (tandem PHD finger) (Homo sapiens, UniProt Q92784). In words: DPF3b PHD12 binding to modified histone peptides. The note with it: H3 peptide residues 1–20, versus H3K14ac.
Chain of human DPF3b PHD12 (tandem PHD finger) (Q92784 261-372): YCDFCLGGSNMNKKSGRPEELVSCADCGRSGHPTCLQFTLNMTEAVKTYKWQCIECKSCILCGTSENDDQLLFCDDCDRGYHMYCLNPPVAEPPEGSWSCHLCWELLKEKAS

Take “H3 peptide (residues 1–20): H3 peptide (residues 1–20), not acetylated at K14”: the “reduction in affinity when H3 is not acetylated at K14” value is 4 fold.
